To fix the notation:
T1: Symplekin (human, UniProt Q92797 1-1274)
T1 sequence (looked up): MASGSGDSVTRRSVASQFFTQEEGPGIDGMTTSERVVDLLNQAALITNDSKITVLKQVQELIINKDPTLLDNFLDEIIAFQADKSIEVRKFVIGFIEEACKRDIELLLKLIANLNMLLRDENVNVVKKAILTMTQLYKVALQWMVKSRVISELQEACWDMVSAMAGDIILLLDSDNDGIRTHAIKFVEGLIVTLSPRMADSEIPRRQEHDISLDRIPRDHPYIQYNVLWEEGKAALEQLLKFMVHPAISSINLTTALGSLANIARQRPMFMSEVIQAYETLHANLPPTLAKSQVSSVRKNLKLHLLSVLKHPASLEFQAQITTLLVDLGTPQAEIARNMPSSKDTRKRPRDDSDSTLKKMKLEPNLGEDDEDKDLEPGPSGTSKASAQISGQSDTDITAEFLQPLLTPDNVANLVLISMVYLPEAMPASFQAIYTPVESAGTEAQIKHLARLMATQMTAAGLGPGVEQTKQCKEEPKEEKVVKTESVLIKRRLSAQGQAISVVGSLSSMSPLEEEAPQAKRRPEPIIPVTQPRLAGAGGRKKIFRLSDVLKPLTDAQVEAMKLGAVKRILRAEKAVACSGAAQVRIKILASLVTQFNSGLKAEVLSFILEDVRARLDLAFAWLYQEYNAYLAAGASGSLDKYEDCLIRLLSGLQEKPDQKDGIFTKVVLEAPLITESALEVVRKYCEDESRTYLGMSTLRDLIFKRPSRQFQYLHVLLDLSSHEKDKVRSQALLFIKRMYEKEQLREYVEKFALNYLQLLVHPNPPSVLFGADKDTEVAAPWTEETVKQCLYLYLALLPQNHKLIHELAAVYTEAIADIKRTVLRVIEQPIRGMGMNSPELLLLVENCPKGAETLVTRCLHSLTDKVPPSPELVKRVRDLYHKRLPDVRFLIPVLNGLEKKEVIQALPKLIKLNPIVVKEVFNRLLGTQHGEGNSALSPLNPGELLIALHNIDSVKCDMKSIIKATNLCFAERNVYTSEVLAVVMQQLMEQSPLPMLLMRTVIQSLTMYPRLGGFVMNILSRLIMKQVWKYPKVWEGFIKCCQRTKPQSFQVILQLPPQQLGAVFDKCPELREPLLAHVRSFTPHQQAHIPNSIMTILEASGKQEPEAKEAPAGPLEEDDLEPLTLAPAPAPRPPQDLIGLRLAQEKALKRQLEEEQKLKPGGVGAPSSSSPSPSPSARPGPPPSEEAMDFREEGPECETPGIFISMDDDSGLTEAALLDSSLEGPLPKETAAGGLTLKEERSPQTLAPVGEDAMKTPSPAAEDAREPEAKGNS

B1: CstF-64 (Cleavage-Stimulatory Factor subunit 64) (other, human, UniProt P33240 1-577, looked up)
chain: MAGLTVRDPAVDRSLRSVFVGNIPYEATEEQLKDIFSEVGPVVSFRLVYDRETGKPKGYGFCEYQDQETALSAMRNLNGREFSGRALRVDNAASEKNKEELKSLGTGAPVIESPYGETISPEDAPESISKAVASLPPEQMFELMKQMKLCVQNSPQEARNMLLQNPQLAYALLQAQVVMRIVDPEIALKILHRQTNIPTLIAGNPQPVHGAGPGSGSNVSMNQQNPQAPQAQSLGGMHVNGAPPLMQASMQGGVPAPGQMPAAVTGPGPGSLAPGGGMQAQVGMPGSGPVSMERGQVPMQDPRAAMQRGSLPANVPTPRGLLGDAPNDPRGGTLLSVTGEVEPRGYLGPPHQGPPMHHVPGHESRGPPPHELRGGPLPEPRPLMAEPRGPMLDQRGPPLDGRGGRDPRGIDARGMEARAMEARGLDARGLEARAMEARAMEARAMEARAMEARAMEVRGMEARGMDTRGPVPGPRGPIPSGMQGPSPINMGAVVPQGSRQVPVMQGTGMQGASIQGGSQPGGFSPGQNQVTPQDHEKAALIMQVLQLTADQIAMLPPEQRQSILILKEQIQKSTGAP
B2: CPSF-100 (Cleavage and Polyadenylation Specificity Factor subunit 100) (other, human, UniProt Q9P2I0 1-782, looked up)
chain: MTSIIKLTTLSGVQEESALCYLLQVDEFRFLLDCGWDEHFSMDIIDSLRKHVHQIDAVLLSHPDPLHLGALPYAVGKLGLNCAIYATIPVYKMGQMFMYDLYQSRHNTEDFTLFTLDDVDAAFDKIQQLKFSQIVNLKGKGHGLSITPLPAGHMIGGTIWKIVKDGEEEIVYAVDFNHKREIHLNGCSLEMLSRPSLLITDSFNATYVQPRRKQRDEQLLTNVLETLRGDGNVLIAVDTAGRVLELAQLLDQIWRTKDAGLGVYSLALLNNVSYNVVEFSKSQVEWMSDKLMRCFEDKRNNPFQFRHLSLCHGLSDLARVPSPKVVLASQPDLECGFSRDLFIQWCQDPKNSIILTYRTTPGTLARFLIDNPSEKITEIELRKRVKLEGKELEEYLEKEKLKKEAAKKLEQSKEADIDSSDESDIEEDIDQPSAHKTKHDLMMKGEGSRKGSFFKQAKKSYPMFPAPEERIKWDEYGEIIKPEDFLVPELQATEEEKSKLESGLTNGDEPMDQDLSDVPTKCISTTESIEIKARVTYIDYEGRSDGDSIKKIINQMKPRQLIIVHGPPEASQDLAECCRAFGGKDIKVYMPKLHETVDATSETHIYQVRLKDSLVSSLQFCKAKDAELAWIDGVLDMRVSKVDTGVILEEGELKDDGEDSEMQVEAPSDSSVIAQQKAMKSLFGDDEKETGEESEIIPTLEPLPPHEVPGHQSVFMNEPRLSDFKQVLLREGIQAEFVGGVLVCNNQVAVRRTETGRIGLEGCLCQDFYRIRDLLYEQYAIV
notes: also called SPSF-100
B3: Flag-Star-PAP (full length) (enzyme)
chain: MAAVDSDVESLPRGGFRCCLCHVTTANRPSLDAHLGGRKHRHLVELRAARKAQGLRSVFVSGFPRGVDSAQLSEYFLAFGPVASVVMDKDKGVFAIVEMGDVGAREAVLSQSQHSLGGHRLRVRPREQKEFQSPASKSPKGAAPDSHQLAKALAEAADVGAQMIKLVGLRELSEAERQLRSLVVALMQEVFTEFFPGCVVHPFGSSINSFDVHGCDLDLFLDLGDLEEPQPVPKAPESPSLDSALASPLDPQALACTPASPPDSQPPASPQDSEALDFETPSSSLAPQTPDSALASETLASPQSLPPASPLLEDREEGDLGKASELAETPKEEKAEGAAMLELVGSILRGCVPGVYRVQTVPSARRPVVKFCHRPSGLHGDVSLSNRLALHNSRFLSLCSELDGRVRPLVYTLRCWAQGRGLSGSGPLLSNYALTLLVIYFLQTRDPPVLPTVSQLTQKAGEGEQVEVDGWDCSFPRDASRLEPSINVEPLSSLLAQFFSCVSCWDLRGSLLSLREGQALPVAGGLPSNLWEGLRLGPLNLQDPFDLSHNVAANVTSRVAGRLQNCCRAAANYCRSLQYQRRSSRGRDWGLLPLLQPSSPSSLLSATPIPLPLAPFTQLTAALVQVFREALGCHIEQATKRTRSEGGGTGESSQGGTSKRLKVDGQKNCCEEGKEEQQGCAGDGGEDRVEEMVIEVGEMVQDWAMQSPGQPGDLPLTTGKHGAPGEEGQPSHAALAERGPKGHEAAQEWSQGEAGKGASLPSSASWRCALWHRVWQGRRRARRRLQQQTKEGAGGGAGTRAGWLATEAQVTQELKGLSGGEERPETEPLLSFVASVSPADRMLTVTPLQDPQGLFPDLHHFLQVFLPQAIRHLK
notes: Expressed in HEK 293 cells and purified on anti-FLAG M2 resin together with its associated complex; also called Flag tagged Star-PAP; full-length Star-PAP; not shown: FLAG tag
B4: CPSF-73 (Cleavage and Polyadenylation Specificity Factor subunit 73) (enzyme, human, UniProt Q9UKF6 2-684, looked up)
chain: SAIPAEESDQLLIRPLGAGQEVGRSCIILEFKGRKIMLDCGIHPGLEGMDALPYIDLIDPAEIDLLLISHFHLDHCGALPWFLQKTSFKGRTFMTHATKAIYRWLLSDYVKVSNISADDMLYTETDLEESMDKIETINFHEVKEVAGIKFWCYHAGHVLGAAMFMIEIAGVKLLYTGDFSRQEDRHLMAAEIPNIKPDILIIESTYGTHIHEKREEREARFCNTVHDIVNRGGRGLIPVFALGRAQELLLILDEYWQNHPELHDIPIYYASSLAKKCMAVYQTYVNAMNDKIRKQININNPFVFKHISNLKSMDHFDDIGPSVVMASPGMMQSGLSRELFESWCTDKRNGVIIAGYCVEGTLAKHIMSEPEEITTMSGQKLPLKMSVDYISFSAHTDYQQTSEFIRALKPPHVILVHGEQNEMARLKAALIREYEDNDEVHIEVHNPRNTEAVTLNFRGEKLAKVMGFLADKKPEQGQRVSGILVKRNFNYHILSPCDLSNYTDLAMSTVKQTQAIPYTGPFNLLCYQLQKLTGDVEELEIQEKPALKVFKNITVIQEPGMVVLEWLANPSNDMYADTVTTVILEVQSNPKIRKGAVQKVSKKLEMHVYSKRLEIMLQDIFGEDCVSVKDDSILSVTVDGKTANLNLETRTVECEEGSEDDESLREMVELAAQRLYEALTPVH
notes: also called CSPF-73

Holding throughout (assay): FLAG affinity purification from HEK 293 cells, western blot
For orientation: In western blotting, separated proteins are transferred to a membrane and probed.

Assay [1] has as its target B3. As to the method:
(§1) Affinity purification of Flag-Star-PAP and Flag-PAPα and their associated complex of proteins in parallel allowed a comparison of the complexes formed by Star-PAP and PAPα in more detail. Flag tagged Star-PAP and PAPα were purified from HEK 293 cells stably expressing Flag-Star-PAP or Flag-PAPα (following manufacturer's instructions; Sigma-Aldrich) and the presence of endogenous symplekin, CPSF¹⁰⁰, CPSF⁷³, CstF⁶⁴, RNA Pol II, Sm protein (Y12) and PIPKIα was assessed by western blotting. Like Flag-PAPα, Flag-Star-PAP associates with symplekin, CPSF¹⁰⁰ and CPSF⁷³, further confirmation that Star-PAP may function in an mRNA polyadenylation complex (FIG. 7). Also detected with both PAPs was a faster migrating form of RNA Pol II and Sm protein (Y-12), a component of the spliceosome, which is consistent with reports that the machinery for splicing and polyadenylation are coupled.

Assay [2] concerns the target T2, Flag-PAPα (canonical poly(A) polymerase) (Homo sapiens (Human), UniProt P51003 1-745, limits assumed).
T2 construct: not shown: FLAG tag
As for the experimental part: as §1

The target in another assay is T1, Symplekin. As to the method:
as §1

T2 sequence (P51003 whole entry): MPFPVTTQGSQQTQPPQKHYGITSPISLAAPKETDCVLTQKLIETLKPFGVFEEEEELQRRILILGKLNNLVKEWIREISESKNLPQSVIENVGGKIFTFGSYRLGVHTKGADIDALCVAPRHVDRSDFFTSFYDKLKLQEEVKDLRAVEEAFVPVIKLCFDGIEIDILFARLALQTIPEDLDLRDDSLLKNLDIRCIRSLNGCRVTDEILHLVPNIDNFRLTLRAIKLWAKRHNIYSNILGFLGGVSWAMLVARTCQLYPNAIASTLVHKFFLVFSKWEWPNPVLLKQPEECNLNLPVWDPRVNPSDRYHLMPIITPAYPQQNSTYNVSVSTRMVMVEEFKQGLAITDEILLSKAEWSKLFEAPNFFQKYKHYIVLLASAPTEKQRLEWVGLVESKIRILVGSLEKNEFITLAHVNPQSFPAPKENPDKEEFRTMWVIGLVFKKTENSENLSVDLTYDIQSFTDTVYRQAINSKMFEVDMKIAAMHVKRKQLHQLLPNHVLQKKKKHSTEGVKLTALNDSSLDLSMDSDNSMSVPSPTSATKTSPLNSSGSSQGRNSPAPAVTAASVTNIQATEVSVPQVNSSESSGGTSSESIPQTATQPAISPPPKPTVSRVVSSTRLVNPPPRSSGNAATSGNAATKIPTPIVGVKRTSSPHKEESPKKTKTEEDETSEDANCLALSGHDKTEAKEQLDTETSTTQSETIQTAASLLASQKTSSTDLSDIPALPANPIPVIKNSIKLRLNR

In the case of B1, the figures for the binding result in assay [1] and in assay [2] were “binds” and “no binding”, respectively.

B2: the binding result in assay [1] is “binds”.

In the case of B3, the binding result with Symplekin is on record as “binds”.

With B4, the binding result in assay [1] and in assay [2] was “binds” in each case.
